This is an account of results in patent publication US12084487B2, “Nanoparticles having molecules that bind or block PD-L1 and uses in treating cancer” (Emory University, priority 2016, dated 2024).

In this experiment the target is T1, PD-L1 on tumor cell surfaces (mouse pancreatic cancer KC cells) (Mus musculus, UniProt Q9EP73).
T1 construct: endogenous in cells; host or cells: KC mouse pancreatic cancer cells (Pdx1-Cre; LSL-K-rasG12D derived)
Briefly: Competition-binding assay of FITC labeled PD-1 peptides with anti-mouse PD-L1 antibody on KC cells. The note with it: for fluorescence intensity on cells: FITC labeled peptide 2 μg/ml. The method, then: Two (2) μg of FITC labeled PD-1 peptides were mixed with 0, 5, 20 μg of anti-mouse PD-L1 antibody and then incubated with the KC cells for 2 hours. Unbound peptides and antibodies were washed off. Relative fluorescent intensities of KC cells were measured for each group.
Next, a competition-binding assay was performed to determine specificity of the PD-1 like peptides binding to PD-L1 on tumor cell surfaces. […] The peptides were then added to tissue culture plates with mouse pancreatic cancer KC cells.

T1 sequence (Q9EP73 19-290): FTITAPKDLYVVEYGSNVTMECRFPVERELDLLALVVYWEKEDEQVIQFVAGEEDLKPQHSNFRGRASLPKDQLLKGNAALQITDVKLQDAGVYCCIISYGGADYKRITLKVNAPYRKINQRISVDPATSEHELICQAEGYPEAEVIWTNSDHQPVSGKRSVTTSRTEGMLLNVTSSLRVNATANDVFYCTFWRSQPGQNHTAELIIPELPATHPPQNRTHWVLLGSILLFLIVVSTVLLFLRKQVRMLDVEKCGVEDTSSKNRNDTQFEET

For “NWNRLSPSNQTEKQAAPHHHHCGAISLHPKAKIEE [PD-1 (Y)]”, the “fluorescence intensity on cells” value is “High levels of fluorescence intensity”. In addition, the “binding to cells with anti-PD-L1 antibody added” value (20 μg/ml anti-PD-L1 antibody) was “reduced”.
On to “NWNRLSPSNQTEKQAACGAISLHPKAKIEESPGHHHH [PD-1(Lin)]”, for which the “fluorescence intensity on cells” value is given as “High levels of fluorescence intensity”.
